Assay results: publication PMC6224477
One block for each binder: values may come before it.

Columns and labels:
[1] = target: ribosomes (mono- and poly-ribosomes) of HEK293 cells (human (endogenous in HEK293))
[2] = target: di-ribosome translation complex stalled on a poly(A)-containing transcript in rabbit reticulocyte lysate (rabbit (endogenous in reticulocyte lysate)); assay: pull-down + co-sedimentation; poly(A)-containing transcript translated in RRL supplemented with FLAG-tagged ZNF598; translation complexes affinity purified via the Twin-Strep tag of the nascent chain (StrepTactin, RNC buffer: 50 mM HEPES pH 7.6, 100 mM KOAc, 5 mM Mg(OAc)2, biotin elution), then sucrose gradient; immunoblot for ZNF598, uL2, eS24

ubiquitinated eS10 (immunoblot) in HEK293 cells pre-treated 15 min with low concentrations of anisomycin, emetine or didemnin B [1]: 10%
B1: endogenous ZNF598 (enzyme)
chain: MAAAGGAEGRRAALEAAAAAAPERGGGSCVLCCGDLEATALGRCDHPVCYRCSTKMRVLCEQRYCAVCREELRQVVFGKKLPAFATIPIHQLQHEKKYDIYFADGKVYALYRQLLQHECPRCPELPPFSLFGDLEQHMRRQHELFCCRLCLQHLQIFTYERKWYSRKDLARHRMQGDPDDTSHRGHPLCKFCDERYLDNDELLKHLRRDHYFCHFCDSDGAQDYYSDYAYLREHFREKHFLCEEGRCSTEQFTHAFRTEIDLKAHRTACHSRSRAEARQNRHIDLQFSYAPRHSRRNEGVVGGEDYEEVDRYSRQGRVARAGTRGAQQSRRGSWRYKREEEDREVAAAVRASVAAQQQEEARRSEDQEEGGRPKKEEAAARGPEDPRGPRRSPRTQGEGPGPKETSTNGPVSQEAFSVTGPAAPGCVGVPGALPPPSPKLKDEDFPSLSASTSSSCSTAATPGPVGLALPYAIPARGRSAFQEEDFPALVSSVPKPGTAPTSLVSAWNSSSSSKKVAQPPLSAQATGSGQPTRKAGKGSRGGRKGGPPFTQEEEEDGGPALQELLSTRPTGSVSSTLGLASIQPSKVGKKKKVGSEKPGTTLPQPPPATCPPGALQAPEAPASRAEGPVAVVVNGHTEGPAPARSAPKEPPGLPRPLGSFPCPTPQEDFPALGGPCPPRMPPPPGFSAVVLLKGTPPPPPPGLVPPISKPPPGFSGLLPSPHPACVPSPATTTTTKAPRLLPAPRAYLVPENFRERNLQLIQSIRDFLQSDEARFSEFKSHSGEFRQGLISAAQYYKSCRDLLGENFQKVFNELLVLLPDTAKQQELLSAHTDFCNREKPLSTKSKKNKKSAWQATTQQAGLDCRVCPTCQQVLAHGDASSHQALHAARDDDFPSLQAIARIIT

percent of ZNF598 co-fractionating with ribosomes [2]: 70 to 80%
B2: ZNF598-TEV-3xFlag (human) (enzyme)
chain: B1 chain
